Laboratory results from PMC2854499 (Nature, 2008).

Molecular target: T1, MBP-tagged WSTF C-motif (208-345) (human, UniProt Q9UIG0 208-345)
T1 sequence (looked up): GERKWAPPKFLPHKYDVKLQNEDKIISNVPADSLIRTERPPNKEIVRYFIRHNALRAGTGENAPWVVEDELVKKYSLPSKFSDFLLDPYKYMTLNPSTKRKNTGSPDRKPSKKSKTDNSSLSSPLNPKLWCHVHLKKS
Assay: pull-down + SEC

B1: GST-tagged WSTF N-motif (1-205) (domain or fragment, human, UniProt Q9UIG0 1-205, looked up)
chain: MAPLLGRKPFPLVKPLPGEEPLFTIPHTQEAFRTREEYEARLERYSERIWTCKSTGSSQLTHKEAWEEEQEVAELLKEEFPAWYEKLVLEMVHHNTASLEKLVDTAWLEIMTKYAVGEECDFEVGKEKMLKVKIVKIHPLEKVDEEATEKKSDGACDSPSSDKENSSQIAQDHQKKETVVKEDEGRRESINDRARRSPRKLPTSL
- stoichiometry N: 1
